Test: yeast display, Sf9 membrane polyspecificity reagent, FACS + sequencing; frameworks hold sequencing errors
Outline: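 Galactose induction of a Saccharomyces cerevisiae BJ5465 synthetic nanobody display library ran 36–48 hours. The cells were then stained for 1 hour at 4 °C with 10% biotinylated, detergent-solubilized Sf9 membrane reagent, pulled down on streptavidin microbeads and FACS-sorted into low and high (top ~1%) gates on expression and reagent-binding fluorescence. Labels for polyreactivity follow the gate of origin.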

For “QVQLVESGGGLVQAGGSLRLSCAASGGIFRFNAMGWYRQAPGKERELVAGISSTYYADSVKGRFTISRDNAKNTVYLQMNSLKPEDTAVYYCAAAGPEEHGYTYPGNNQMEYWGQGTQVTVSS”, which “polyreactivity (PSR sort gate)” value is on record?
Its value is “low polyreactivity”.

With “QVQLVESGGGLVQAGGSLRLSCAASGGIFRGYAMGCYRQAPGKERELVATITFSGTSTYYADSVKGRFTISRDNAKNTVYLQMNSLKPEDTAVYYCNADWWFKYDYWGQGTQVTVSS” as the sequence, how does the “polyreactivity (PSR sort gate)” value read?
Its value is “low polyreactivity”.

With “QVQLVESGGGLVQAGGSLRLSCAASGGIFRGYAMGWYRQAPGKERELVATITFSGTSTNYADSVKGRFTISRDNAKNTVYFQMNRLKPEDTAVYYFAAGPVFGGGGYDYWGKGTQVTVSS” as the sequence, how does the “polyreactivity (PSR sort gate)” value read?
Its value is “low polyreactivity”.

Which “polyreactivity (PSR sort gate)” value does the source give for “QVQLVESGGGLVQAGGSLRLSCAASGGIFRYYAMGWSRQAPGKEMELVAAITRGGRTSYADSVKGRFTISRDNAKNSVYLQMNSLKPEDTAVYYCNAKRPYQEHNSYGYWGQGTLVTVSS” here?
Its value is “high polyreactivity”.

Which “polyreactivity (PSR sort gate)” value does the source give for “QVQLVESGGGLVQAGGSLRLSCAASGGIFSRYAIGWYRQAPGKEREFVAAISFSGASTYYADSVKGRFTISRDNAKNTVYLQMNSLKPEDTAVYYCAADRVWPYYQYDYWGQGTQVTVSS” here?
The value was “low polyreactivity”.

For “QVQLVESGGGLVQAGGSLRLSCAASGGIFSSYAMGWYRPAPGKERELVAAISSSSGSTYYADSVKGRFTISRDNAKNTVYLQMNSLKPEDTGVYYCAADSGHPDWYYYCGQGTQVTVSS”, which “polyreactivity (PSR sort gate)” value is on record?
The value was “high polyreactivity”.

Which “polyreactivity (PSR sort gate)” value does the source give for “QVQLVESGGGLVQAGGSLRLSCAASGGIFSTNGMGWYRQAPGKERELVATISYGGGSTSYADSVKGRFTISRDNAKNTVYLHMNSLKPEDTAVYYCAADSFGYNSWYNYDYWGQGSQVTVSS” here?
The value was “low polyreactivity”.

Which “polyreactivity (PSR sort gate)” value does the source give for “QVQLVESGGGLVQAGGSLRLSCAASGGIFSWYAMGWYRQAPGKERELVAAISWSGSRTYYADSVKGRFTISRDNAKNTVYLQMNCLKPEDTAVYYCAADYIFRRYPVGGIYDYDYWGQGTQVTVSS” here?
Its value is “high polyreactivity”.

Which “polyreactivity (PSR sort gate)” value does the source give for “QVQLVESGGGLVQAGGSLRLSCAASGGIFSWYDMGWYREAPGKERELVAAISWSGGSTYYADSVKGRFTISRDNAKHTVYLQMNSLKPEDTAVYYCAAYTADDYDYWGQGTQVTVSS” here?
The value was “high polyreactivity”.

Which “polyreactivity (PSR sort gate)” value does the source give for “QVQLVESGGGLVQAGGSLRLSCAASGGIFSYNAMGWYRQAPGKERELVAAITSSGSTYYADSVKGRFTISRDNAKNTVYLQMNSLKPEDTAVYYCNAVKRNSWIRGYWGQGTQVTVSS” here?
Its value is “low polyreactivity”.

Which “polyreactivity (PSR sort gate)” value does the source give for “QVQLVESGGGLVQAGGSLRLSCAASGGIFTQYVMGWYRQAPGKERELVAAINWSGGSTTYAYSVKGRFTISRDNAKNTVYLQMNSLKPEVTAVYYCAAYSYREFYYWGQGTQVTVSS” here?
Its value is “high polyreactivity”.

Which “polyreactivity (PSR sort gate)” value does the source give for “QVQLVESGGGLVQAGGSLRLSCAASGGIFVANAMGWYRQAPGKERELVAAISRSGGSTYYADSVKGRFTISRDNAKNTVYLQMNSLKPEDTAVYYCAAKSRRQYTVGLTSDYWGQGTQVTVSS” here?
Its value is “high polyreactivity”.

For “QVQLVESGGGLVQAGGSLRLSCAASGGIFVDNAMGWYRQAPGKERELVATITSTGSTNYADSVKGRFTISRDNAKNTVYLQMNSLKPEDTAVYYCNADGILQDYDYWGQGTQVTVSS”, which “polyreactivity (PSR sort gate)” value is on record?
Its value is “low polyreactivity”.

For “QVQLVESGGGLVQAGGSLRLSCAASGGIFVFYAMGWYRQAPGKERELVAAIRYGGSSTYYADSVKGRFTISRDNAKNTVYLQMNSLKPEDTAVYYCAAEHYSVYDPIGDYWGQGTQVTVSS”, which “polyreactivity (PSR sort gate)” value is on record?
Its value is “low polyreactivity”.

For “QVQLVESGGGLVQAGGSLRLSCAASGGIFVPNAMGWNRQAPGQEREFVARISFSGVSTYYADSVKGRFTISRDNAKNSVYLQLNSLKPEDTAVYYCACDKRARLGAMGYWGQGTQVTVSS”, which “polyreactivity (PSR sort gate)” value is on record?
Its value is “low polyreactivity”.

With “QVQLVESGGGLVQAGGSLRLSCAASGGIFVSYAMGLYRQAPGKERELVARINSVDGTNYADSVKGRFTISRDNAKNTVYLQMNSLKPEDTAVYYCAVRSPVLASDYGYYFLRDYWGQGTQVTVSS” as the sequence, how does the “polyreactivity (PSR sort gate)” value read?
The value was “low polyreactivity”.

With “QVQLVESGGGLVQAGGSLRLSCAASGGIFVYNMGWYRQAPGKERELVAAISVSGGSTYYADSVKGRFTISRDNAKNTVYLQMNSLKPEDTAVYYCAASRPPYRDDYWGQGSQVTVSS” as the sequence, how does the “polyreactivity (PSR sort gate)” value read?
Its value is “high polyreactivity”.

With “QVQLVESGGGLVQAGGSLRLSCAASGGIFVYYAMGWYRQAPGKERELVAAISSGGTTNYADSVKGRFTISRDNAKNTVYLQMNSLKPEDTAVYYCAIYVSWPLYYYWGQGTQVTVSS” as the sequence, how does the “polyreactivity (PSR sort gate)” value read?
The value was “low polyreactivity”.

For “QVQLVESGGGLVQAGGSLRLSCAASGGIFWHYTMGWYRQAPGKERELVAAITRRGGSTYYADSVKGRFTISRDNAKNTVYLQMNSLKPEDTSVYYGAAVFEWTSRGSYYRYYYWGQGTQVTVSS”, which “polyreactivity (PSR sort gate)” value is on record?
Its value is “low polyreactivity”.

With “QVQLVESGGGLVQAGGSLRLSCAASGGIFWRYAMGWYRPAPGKERELVAAISSRGGSTYYADSVKGRFTISRDNAKNTVYLQMNSLKPEDTAVYYCAADRRYAESGYYWGQGTQVTVSS” as the sequence, how does the “polyreactivity (PSR sort gate)” value read?
The value was “high polyreactivity”.

With “QVQLVESGGGLVQAGGSLRLSCAASGGIFWTYAMGWYRQEPGKERELVAAISYSDGITYYADSGKGRFTISRDNAKNTVYFQMYSLKPEDTAVYYCAADPELAVPMYYWGQGTQVTVSS” as the sequence, how does the “polyreactivity (PSR sort gate)” value read?
The value was “low polyreactivity”.

For “QVQLVESGGGLVQAGGSLRLSCAASGGIFYDYTMGWYRQAPGKERELVAVISSSGSTYYADSVKGRFTISRDNAKNTVYLLMNSLKPEDTAVYYCNALGWYGDYDYWGQGTQVTVSS”, which “polyreactivity (PSR sort gate)” value is on record?
Its value is “low polyreactivity”.

With “QVQLVESGGGLVQAGGSLRLSCAASGGIFYGYAMGWYRQAPGKERELVASISSDDRTNNADSVKGRFTISRDNAKNTVYLQMNSLKPEDTAVYSCNAELGSDTSNFDYWGQGTQVTVSS” as the sequence, how does the “polyreactivity (PSR sort gate)” value read?
Its value is “low polyreactivity”.

With “QVQLVESGGGLVQAGGSLRLSCAASGGIFYSNAMGWYRPAPGKERELVAAISRDGTITYYADSVKGRFTISRDNAKNTVYLQMNSLKPEDTAVYYCAADASIQSWYSIYDYWGQGTQVTVSS” as the sequence, how does the “polyreactivity (PSR sort gate)” value read?
Its value is “high polyreactivity”.

For “QVQLVESGGGLVQAGGSLRLSCAASGGIFYSYAMGWYRQAPGKEREFVAAIRRSGGRTYYADSVKGRFTISRDNAKNTVYLQMNSLKPEDTAVYYCAADGWYSGGHDYWGQGTQVTVSS”, which “polyreactivity (PSR sort gate)” value is on record?
The value was “high polyreactivity”.

Which “polyreactivity (PSR sort gate)” value does the source give for “QVQLVESGGGLVQAGGSLRLSCAASGGIIEDNMGWYRQAPGKERELVAAIDLRADSTYYADSVKGRFTISRDNAKNTVYLQMNSLKPEDTAVYYCAAGARQGVYRGGDYWGQGTQVTVSS” here?
Its value is “low polyreactivity”.

For “QVQLVESGGGLVQAGGSLRLSCAASGGIILPYAMGWYRQAPGKERELVAAISGRTGSTNYADSVKGRFTISRDNAKNTVYLQMNSLKPEDTAVYYCAARGVRSYFFPYNYWGQGTQVTVSS”, which “polyreactivity (PSR sort gate)” value is on record?
The value was “high polyreactivity”.

With “QVQLVESGGGLVQAGGSLRLSCAASGGIIQGYSMVWYRQAPGKERELVAAISSSGGTTYYADSVKGRFTISRDNAKNTVYLQMNSLKPEDTAVYYCAAPTHSPYDYWGQGTQVTVSS” as the sequence, how does the “polyreactivity (PSR sort gate)” value read?
Its value is “low polyreactivity”.

For “QVQLVESGGGLVQAGGSLRLSCAASGGIIRVYVMGWSRQAPGKERELVAAISRRGGSTYYADSVKGRFTISRDNAKNTVYLQMNSLKPEDTAVYYCAAAVRPRANTTYQRPRYYYWGQGTQVTVSS”, which “polyreactivity (PSR sort gate)” value is on record?
The value was “high polyreactivity”.

For “QVQLVESGGGLVQAGGSLRLSCAASGGILRQNTMGWYRQAPGKERELVAAISSSGGRTYYADSVKGRFTISRDNAKNTVYLQMNSLKPEDTAVYYCNVPAKRYPYYIRQSTVYPGNYWGQGTQVTVSS”, which “polyreactivity (PSR sort gate)” value is on record?
Its value is “high polyreactivity”.

With “QVQLVESGGGLVQAGGSLRLSCAASGGILVFYALGWYRQSPGKERELVAAINVSGGSTYYADSVKGRFTISRDNAKNTVYLQMNSLKPEDTAVYYCAALGPYLDYGVQYGYWGQGTQVTVSS” as the sequence, how does the “polyreactivity (PSR sort gate)” value read?
The value was “low polyreactivity”.

With “QVQLVESGGGLVQAGGSLRLSCAASGGILVGYAMGWYRQAPGKERELVAAINYSGGSTNYADSVKGRFTISRDNAKNTVYLQMNSLKPVDTAVYYCAARSTARYGYWGQGTQVTVSS” as the sequence, how does the “polyreactivity (PSR sort gate)” value read?
Its value is “low polyreactivity”.

Which “polyreactivity (PSR sort gate)” value does the source give for “QVQLVESGGGLVQAGGSLRLSCAASGGILWGNGMGWYRQAPGKERELVAAISTGGSTNYADSVKGRFTISRDNAKNTVYLQMNSLKPEETAVYYCAGGAGGVRYSFYWNDYWGQGTQVTVSS” here?
The value was “high polyreactivity”.

For “QVQLVESGGGLVQAGGSLRLSCAASGGISTAYTMGWYRQAPGKERELVADITRSGGRTYYADSVKGRFTISRDNAKNTVYLQMNSLKPEDTAVYYCARTYYYRFNYWGQGTQVTVSS”, which “polyreactivity (PSR sort gate)” value is on record?
The value was “high polyreactivity”.

Which “polyreactivity (PSR sort gate)” value does the source give for “QVQLVESGGGLVQAGGSLRLSCAASGGLFYYNAMGWYRQAPGKERELVAAISGSGGTTYYADSVKGRFTISRDNAKNTVYLQMNSLKPEDTAVYYCAKRPYTVIAYSRYGYWGQGTQVTVSS” here?
Its value is “high polyreactivity”.

Which “polyreactivity (PSR sort gate)” value does the source give for “QVQLVESGGGLVQAGGSLRLSCAASGGMGWYRQAPGKERELVATISSVGSTNYADSVKGRFTISRDNAKNTVYLQMNSLKPEDTAVYYCNDTGVQYFLYAYWGQGTQVTVSS” here?
The value was “low polyreactivity”.

With “QVQLVESGGGLVQAGGSLRLSCAASGGMGWYRQAPGKERELVATISSVGSTNYADSVKGRFTISRDNAKNTVYLQRNSLKPEVTAVYYCNATGVQYFLYGYWGQGTQVTVSS” as the sequence, how does the “polyreactivity (PSR sort gate)” value read?
Its value is “low polyreactivity”.

For “QVQLVESGGGLVQAGGSLRLSCAASGGNFGRYAMGWYRQAPGKERELVADINWSGGANTNYADSVKGRFTISRDNAKNTVYLQMNSLKPEDTAVYYCAAPSYFTHSGRFDYWGQGTQVTVSS”, which “polyreactivity (PSR sort gate)” value is on record?
The value was “low polyreactivity”.

Which “polyreactivity (PSR sort gate)” value does the source give for “QVQLVESGGGLVQAGGSLRLSCAASGGPFFYYAMGWYRAAPGKAREWVAAITWSATDTYYADSVKGRFTISRDNAKNTVYIQMNSLKPEDTAVYYCNAAPIGSEVDYGGQGTQVTVSS” here?
The value was “low polyreactivity”.

Which “polyreactivity (PSR sort gate)” value does the source give for “QVQLVESGGGLVQAGGSLRLSCAASGGSFNNYAMGWYRQAPGKERELVAAITYSGVRTNYADSVKGRFTISRDNAKNTVYLQMNSLKPEDTAVYYCAADGLSNVRQMDYWGQGTQVTVSS” here?
The value was “low polyreactivity”.

For “QVQLVESGGGLVQAGGSLRLSCAASGGTFALYAMGWYRQAPGKERELVASISFNGGSTYYADSVKGRFTISRDTAKNTVYLQMNSLKPEDTAVYYCNTGYQWGVYESQTAEEDYWGQGTQVTVSS”, which “polyreactivity (PSR sort gate)” value is on record?
The value was “low polyreactivity”.
